According to publication PMC9482650, “Quantitative fragmentomics allow affinity mapping of interactomes” (Nature Communications, 2022):

T1: LRRC7, Q96NW7
T1 sequence (Q96NW7 1440-1537, limits assumed, looked up): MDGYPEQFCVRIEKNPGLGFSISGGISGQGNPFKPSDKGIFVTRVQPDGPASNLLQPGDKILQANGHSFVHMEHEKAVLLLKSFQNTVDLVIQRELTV

T2: SIPA1L2, Q9P2F8
T2 sequence (Q9P2F8 945-1036, limits assumed, looked up): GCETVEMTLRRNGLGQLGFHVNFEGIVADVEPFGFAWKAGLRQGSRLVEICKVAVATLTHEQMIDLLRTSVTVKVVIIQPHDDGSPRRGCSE

T3: LNX2_2, Q8N448
T3 sequence (Q8N448 334-432, limits assumed, looked up): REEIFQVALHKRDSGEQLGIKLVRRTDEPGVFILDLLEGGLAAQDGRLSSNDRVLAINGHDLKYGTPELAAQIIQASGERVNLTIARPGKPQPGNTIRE

T4: DFNB31_3, Q9P202
T4 sequence (Q9P202 811-907, limits assumed, looked up): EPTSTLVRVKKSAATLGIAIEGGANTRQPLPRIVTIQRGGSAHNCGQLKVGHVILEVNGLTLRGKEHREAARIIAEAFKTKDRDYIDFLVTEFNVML

T5: MPDZ_10, O75970
T5 sequence (O75970 1624-1722, limits assumed, looked up): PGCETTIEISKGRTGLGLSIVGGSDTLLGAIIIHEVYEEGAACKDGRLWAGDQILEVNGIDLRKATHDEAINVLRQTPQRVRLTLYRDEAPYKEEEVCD

T6: GRIP1_4, Q9Y3R0
T6 sequence (Q9Y3R0 467-571, limits assumed, looked up): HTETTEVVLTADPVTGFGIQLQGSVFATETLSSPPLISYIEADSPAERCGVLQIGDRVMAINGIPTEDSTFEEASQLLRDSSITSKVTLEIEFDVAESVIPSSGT

T7: TIAM2, Q8IVF5
T7 sequence (Q8IVF5 885-986, limits assumed, looked up): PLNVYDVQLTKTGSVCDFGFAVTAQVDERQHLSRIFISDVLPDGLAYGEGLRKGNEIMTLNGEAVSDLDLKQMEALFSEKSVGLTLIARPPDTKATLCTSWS

T8: GRIP1_7, Q9Y3R0
T8 sequence (Q9Y3R0 999-1096, limits assumed, looked up): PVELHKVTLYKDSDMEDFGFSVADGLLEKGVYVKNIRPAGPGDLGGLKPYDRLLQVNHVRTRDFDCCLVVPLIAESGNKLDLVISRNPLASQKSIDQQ

T9: PCLO, Q9Y6V0
T9 sequence (Q9Y6V0 4491-4600, limits assumed, looked up): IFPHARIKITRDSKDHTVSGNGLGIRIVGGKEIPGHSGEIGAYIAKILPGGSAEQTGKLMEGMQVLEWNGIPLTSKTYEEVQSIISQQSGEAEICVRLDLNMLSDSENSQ

T10: PARD3B_1, Q8TEW8
T10 sequence (Q8TEW8 196-299, limits assumed, looked up): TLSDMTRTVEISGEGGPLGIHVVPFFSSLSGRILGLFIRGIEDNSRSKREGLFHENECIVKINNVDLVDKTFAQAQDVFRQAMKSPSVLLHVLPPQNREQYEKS

T11: DLG3_1, Q92796
T11 sequence (Q92796 125-227, limits assumed, looked up): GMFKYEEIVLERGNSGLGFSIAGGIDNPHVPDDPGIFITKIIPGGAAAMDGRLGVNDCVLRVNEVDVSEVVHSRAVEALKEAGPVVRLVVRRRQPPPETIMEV


Experiments:
Test in all cases: holdup assay
Design in all cases: key: below the threshold = too weak to quantify, mostly under pKd 3.1 to 4
Details in all cases: plain residues with an end cap or a label only (N-terminal biotin on a linker: ado-ado)
LRRC7, Q96NW7 = target: T1, LRRC7, Q96NW7
SIPA1L2, Q9P2F8 = target: T2, SIPA1L2, Q9P2F8
SCRIB_2, Q14160 = target: SCRIB_2, Q14160
Chain of SCRIB_2, Q14160 (Q14160 857-960): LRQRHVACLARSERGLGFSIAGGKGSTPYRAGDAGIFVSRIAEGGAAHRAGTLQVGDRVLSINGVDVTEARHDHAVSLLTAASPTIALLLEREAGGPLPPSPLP

AHNAK1, Q09666 = target: AHNAK1, Q09666
Chain of AHNAK1, Q09666 (Q09666 4-100): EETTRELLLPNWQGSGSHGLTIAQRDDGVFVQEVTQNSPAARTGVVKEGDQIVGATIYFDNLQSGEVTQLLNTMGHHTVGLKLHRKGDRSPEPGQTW

HTRA1, Q92743 = target: HTRA1, Q92743
Chain of HTRA1, Q92743 (Q92743 360-477): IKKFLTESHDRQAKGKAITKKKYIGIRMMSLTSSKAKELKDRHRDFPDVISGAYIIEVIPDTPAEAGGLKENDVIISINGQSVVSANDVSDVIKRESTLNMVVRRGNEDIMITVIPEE

LNX2_2, Q8N448 = target: T3, LNX2_2, Q8N448
DFNB31_3, Q9P202 = target: T4, DFNB31_3, Q9P202
GRID2IP_1, A4D2P6 = target: GRID2IP_1, A4D2P6
Chain of GRID2IP_1, A4D2P6 (A4D2P6 1-87): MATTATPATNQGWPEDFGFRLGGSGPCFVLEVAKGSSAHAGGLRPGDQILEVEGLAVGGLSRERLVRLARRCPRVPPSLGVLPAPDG

MPDZ_10, O75970 = target: T5, MPDZ_10, O75970
GRIP1_4, Q9Y3R0 = target: T6, GRIP1_4, Q9Y3R0
MAGI2_6, Q86UL8 = target: MAGI2_6, Q86UL8
Chain of MAGI2_6, Q86UL8 (Q86UL8 1141-1229): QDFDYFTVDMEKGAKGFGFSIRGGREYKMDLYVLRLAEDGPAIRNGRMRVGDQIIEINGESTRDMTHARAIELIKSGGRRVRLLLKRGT

NOS1, P29475 = target: NOS1, P29475
Chain of NOS1, P29475 (P29475 9-101): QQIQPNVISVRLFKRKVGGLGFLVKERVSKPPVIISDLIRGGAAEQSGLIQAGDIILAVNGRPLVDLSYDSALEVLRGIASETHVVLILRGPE

PDLIM1, O00151 = target: PDLIM1, O00151
Chain of PDLIM1, O00151 (O00151 1-87): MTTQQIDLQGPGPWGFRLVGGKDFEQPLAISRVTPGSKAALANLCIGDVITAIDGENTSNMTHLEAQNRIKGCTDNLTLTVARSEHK

TIAM2, Q8IVF5 = target: T7, TIAM2, Q8IVF5
DLG1_1, Q12959 = target: DLG1_1, Q12959
GRIP1_7, Q9Y3R0 = target: T8, GRIP1_7, Q9Y3R0
NHERF4_2, Q86UT5 = target: NHERF4_2, Q86UT5
Chain of NHERF4_2, Q86UT5 (Q86UT5 220-308): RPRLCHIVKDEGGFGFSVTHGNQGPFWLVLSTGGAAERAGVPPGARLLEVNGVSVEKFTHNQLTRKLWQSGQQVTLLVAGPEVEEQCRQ

DLG4_2, P78352 = target: DLG4_2, P78352
Chain of DLG4_2, P78352 (P78352 155-259): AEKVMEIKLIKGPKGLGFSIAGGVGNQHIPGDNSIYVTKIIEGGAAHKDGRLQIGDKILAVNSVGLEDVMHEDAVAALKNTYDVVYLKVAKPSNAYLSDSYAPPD

PCLO, Q9Y6V0 = target: T9, PCLO, Q9Y6V0
PARD3B_1, Q8TEW8 = target: T10, PARD3B_1, Q8TEW8
DLG3_1, Q92796 = target: T11, DLG3_1, Q92796
MAGI2_3, Q86UL8 = target: MAGI2_3, Q86UL8
Chain of MAGI2_3, Q86UL8 (Q86UL8 600-682): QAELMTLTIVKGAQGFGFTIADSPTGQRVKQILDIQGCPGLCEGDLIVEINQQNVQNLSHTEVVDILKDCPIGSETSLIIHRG

Inadl_1, Q8NI35 = target: Inadl_1, Q8NI35
Chain of Inadl_1, Q8NI35 (Q8NI35 113-229): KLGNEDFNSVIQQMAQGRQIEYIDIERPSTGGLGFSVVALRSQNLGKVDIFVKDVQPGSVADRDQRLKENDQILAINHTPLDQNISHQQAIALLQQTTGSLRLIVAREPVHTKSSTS

DLG2_2, Q15700 = target: DLG2_2, Q15700
Chain of DLG2_2, Q15700 (Q15700 189-283): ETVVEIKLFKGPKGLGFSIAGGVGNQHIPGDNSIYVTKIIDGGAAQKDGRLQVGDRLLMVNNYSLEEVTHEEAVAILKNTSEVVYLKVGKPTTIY

SCRIB_3, Q14160 = target: SCRIB_3, Q14160
Chain of SCRIB_3, Q14160 (Q14160 999-1103): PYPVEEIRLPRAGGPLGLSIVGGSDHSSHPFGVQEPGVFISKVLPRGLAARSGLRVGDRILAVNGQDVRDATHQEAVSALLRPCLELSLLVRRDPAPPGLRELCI

LAP2, Q96RT1 = target: LAP2, Q96RT1
Chain of LAP2, Q96RT1 (Q96RT1 other isoform, or with tags, fused parts or gaps): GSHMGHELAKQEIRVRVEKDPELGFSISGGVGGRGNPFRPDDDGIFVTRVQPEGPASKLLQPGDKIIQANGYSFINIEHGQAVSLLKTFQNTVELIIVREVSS

TJP1_2, Q07157 = target: TJP1_2, Q07157
Chain of TJP1_2, Q07157 (Q07157 181-274): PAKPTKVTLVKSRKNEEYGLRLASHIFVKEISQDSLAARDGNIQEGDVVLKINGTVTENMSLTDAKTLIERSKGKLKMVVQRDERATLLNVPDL

| pKd (LRRC7, Q96NW7) | pKd (SIPA1L2, Q9P2F8) | pKd (SCRIB_2, Q14160) | pKd (AHNAK1, Q09666) | pKd (HTRA1, Q92743) | pKd (LNX2_2, Q8N448) | pKd (DFNB31_3, Q9P202) | pKd (GRID2IP_1, A4D2P6) | pKd (MPDZ_10, O75970) | pKd (GRIP1_4, Q9Y3R0) | pKd (MAGI2_6, Q86UL8) | pKd (NOS1, P29475) | pKd (PDLIM1, O00151) | pKd (TIAM2, Q8IVF5) | pKd (DLG1_1, Q12959) | pKd (GRIP1_7, Q9Y3R0) | pKd (NHERF4_2, Q86UT5) | pKd (DLG4_2, P78352) | pKd (PCLO, Q9Y6V0) | pKd (PARD3B_1, Q8TEW8) | Binder | also measured |
| --- | --- | --- | --- | --- | --- | --- | --- | --- | --- | --- | --- | --- | --- | --- | --- | --- | --- | --- | --- | --- | --- |
| below the threshold | below the threshold | below the threshold | below the threshold | below the threshold | below the threshold | below the threshold | below the threshold | below the threshold | below the threshold | below the threshold | below the threshold | below the threshold | 4.02 | below the threshold | below the threshold | below the threshold | below the threshold | below the threshold | below the threshold | EGGKKRESEA [APPL1, Q9UKG1] | pKd (DLG3_1, Q92796): below the threshold; pKd (MAGI2_3, Q86UL8): below the threshold; pKd (Inadl_1, Q8NI35): below the threshold; pKd (DLG2_2, Q15700): below the threshold; pKd (SCRIB_3, Q14160): 3.82; pKd (LAP2, Q96RT1): 3.59; pKd (TJP1_2, Q07157): below the threshold |
| below the threshold | below the threshold | below the threshold | below the threshold | 4.17 | below the threshold | below the threshold | below the threshold | below the threshold | below the threshold | below the threshold | below the threshold | below the threshold | 3.49 | 3.6 | below the threshold | below the threshold | below the threshold | below the threshold | 3.65 | VGIERETDVL [EZH1, Q92800] | pKd (DLG3_1, Q92796): below the threshold; pKd (MAGI2_3, Q86UL8): below the threshold; pKd (Inadl_1, Q8NI35): below the threshold; pKd (DLG2_2, Q15700): below the threshold; pKd (SCRIB_3, Q14160): 3.58; pKd (LAP2, Q96RT1): below the threshold; pKd (TJP1_2, Q07157): below the threshold |
| below the threshold | 3.67 | 3.6 | below the threshold | below the threshold | below the threshold | below the threshold | below the threshold | below the threshold | below the threshold | 3.68 | below the threshold | 3.56 | below the threshold | below the threshold | below the threshold | 3.57 | 3.79 | below the threshold | 3.63 | QLAEIAESGL [ITK, Q08881] | pKd (DLG3_1, Q92796): 3.56; pKd (MAGI2_3, Q86UL8): 3.58; pKd (Inadl_1, Q8NI35): below the threshold; pKd (DLG2_2, Q15700): 3.57; pKd (SCRIB_3, Q14160): 4.16; pKd (LAP2, Q96RT1): below the threshold; pKd (TJP1_2, Q07157): below the threshold |
